B1: minF1; the commonest letter at each place (parent)
chain: GAGACCGCAACTGAAAAGTTGTTATCAGAAATGGATGGGTTGAATTTCTGCACGTAGAAGCAAAAGGC

This data set covers variants of B1. Kind of data set: fraction ligated after 30 min (ligated reads / total reads); higher = more ligase activity. Particulars: with F1*subA RNA substrate (template-directed ligation), 42 °C. The gist of the method:
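Templates from an oligo pool encoding minimized ligase ribozyme variants were amplified by PCR, transcribed with T7, and purified on gels. Gel electrophoresis separated ligated from unligated RNAs, which were then reverse transcribed using barcoded primers and sequenced on a MiSeq, keeping core bases with quality ≥30. For each variant, fraction ligated equals ligated reads divided by total reads.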
For GAGACCGCAACTGAAAAGTTGTTATCAGAAATTGATGGGTTGTATTTCTGCACGTAGAAGCAAAAGGC [G33T A43T], the fraction ligated turned out to be 0.0265.
Turning to GAGACCGCAACTGAAAAGTTGTTATCAGAAATTGATGGGTTGCATTTCTGCACGTAGAAGCAAAAGGC [G33T A43C], the fraction ligated stood at 0.0254.
On to GAGACCGCAACTGAAAAGTTGTTATCAGAAATTGATGGGTTGGATTTCTGCACGTAGAAGCAAAAGGC [G33T A43G], for which the fraction ligated was 0.0169.
On to GAGACCGCAACTGAAAAGTTGTTATCAGAAATTGATGGGTTGATTTTCTGCACGTAGAAGCAAAAGGC [G33T A44T], for which the fraction ligated worked out at 0.299.
Take GAGACCGCAACTGAAAAGTTGTTATCAGAAATTGATGGGTTGAGTTTCTGCACGTAGAAGCAAAAGGC [G33T A44G]: the fraction ligated stood at 0.249.
Consider GAGACCGCAACTGAAAAGTTGTTATCAGAAATTGATGGGTTGACTTTCTGCACGTAGAAGCAAAAGGC [G33T A44C], for which the fraction ligated turned out to be 0.149.
For GAGACCGCAACTGAAAAGTTGTTATCAGAAAGGGATCGGTTGAATTTCTGCACGTAGAAGCAAAAGGC [T32G G37C], the fraction ligated turned out to be 0.0035.
Under GAGACCGCAACTGAAAAGTTGTTATCAGAAAGGGATTGGTTGAATTTCTGCACGTAGAAGCAAAAGGC [T32G G37T] stands 0.00459; under GAGACCGCAACTGAAAAGTTGTTATCAGAAAGGGATAGGTTGAATTTCTGCACGTAGAAGCAAAAGGC [T32G G37A], 0.00205.
As to GAGACCGCAACTGAAAAGTTGTTATCAGAAATAGATGGGTTGTATTTCTGCACGTAGAAGCAAAAGGC [G33A A43T], the fraction ligated is 0.0914.
Under GAGACCGCAACTGAAAAGTTGTTATCAGAAATAGATGGGTTGGATTTCTGCACGTAGAAGCAAAAGGC [G33A A43G] stands 0.0533; under GAGACCGCAACTGAAAAGTTGTTATCAGAAATAGATGGGTTGCATTTCTGCACGTAGAAGCAAAAGGC [G33A A43C], 0.0816; under GAGACCGCAACTGAAAAGTTGTTATCAGAAATCGGTGGGTTGAATTTCTGCACGTAGAAGCAAAAGGC [G33C A35G], 0.0844.
Turning to GAGACCGCAACTGAAAAGTTGTTATCAGAAATCGTTGGGTTGAATTTCTGCACGTAGAAGCAAAAGGC [G33C A35T], the fraction ligated came to 0.0199.
Under GAGACCGCAACTGAAAAGTTGTTATCAGAAATCGCTGGGTTGAATTTCTGCACGTAGAAGCAAAAGGC [G33C A35C] stands 0.0133.
In the case of GAGACCGCAACTGAAAAGTTGTTATCAGAAATTGATAGGTTGAATTTCTGCACGTAGAAGCAAAAGGC [G33T G37A], the fraction ligated was 0.00704.
Under GAGACCGCAACTGAAAAGTTGTTATCAGAAATTGATTGGTTGAATTTCTGCACGTAGAAGCAAAAGGC [G33T G37T] stands 0.00922.
For GAGACCGCAACTGAAAAGTTGTTATCAGAAATTGATCGGTTGAATTTCTGCACGTAGAAGCAAAAGGC [G33T G37C], the fraction ligated came to 0.00397.
Under GAGACCGCAACTGAAAAGTTGTTATCAGAAATCGATGGGTTGTATTTCTGCACGTAGAAGCAAAAGGC [G33C A43T] stands 0.0544.
In the case of GAGACCGCAACTGAAAAGTTGTTATCAGAAATCGATGGGTTGCATTTCTGCACGTAGAAGCAAAAGGC [G33C A43C] it was 0.0394; in that of GAGACCGCAACTGAAAAGTTGTTATCAGAAATCGATGGGTTGGATTTCTGCACGTAGAAGCAAAAGGC [G33C A43G], 0.0324.
GAGACCGCAACTGAAAAGTTGTTATCAGAAATTGACGGGTTGAATTTCTGCACGTAGAAGCAAAAGGC [G33T T36C]: the fraction ligated stood at 0.0104.
On to GAGACCGCAACTGAAAAGTTGTTATCAGAAATTGAGGGGTTGAATTTCTGCACGTAGAAGCAAAAGGC [G33T T36G], for which the fraction ligated turned out to be 0.0372.
On to GAGACCGCAACTGAAAAGTTGTTATCAGAAATTGAAGGGTTGAATTTCTGCACGTAGAAGCAAAAGGC [G33T T36A], for which the fraction ligated was 0.0253.
On to GAGACCGCAACTGAAAAGTTGTTATCAGAAAGTGATGGGTTGAATTTCTGCACGTAGAAGCAAAAGGC [T32G G33T], for which the fraction ligated is 0.0125.
As to GAGACCGCAACTGAAAAGTTGTTATCAGAAATCGATAGGTTGAATTTCTGCACGTAGAAGCAAAAGGC [G33C G37A], the fraction ligated was determined as 0.00724.
Under GAGACCGCAACTGAAAAGTTGTTATCAGAAATCGATTGGTTGAATTTCTGCACGTAGAAGCAAAAGGC [G33C G37T] stands 0.01; under GAGACCGCAACTGAAAAGTTGTTATCAGAAATCGATCGGTTGAATTTCTGCACGTAGAAGCAAAAGGC [G33C G37C], 0.00381; under GAGACCGCAACTGAAAAGTTGTTATCAGAAAGGTATGGGTTGAATTTCTGCACGTAGAAGCAAAAGGC [T32G G34T], 0.00509.
Under GAGACCGCAACTGAAAAGTTGTTATCAGAAAGGAATGGGTTGAATTTCTGCACGTAGAAGCAAAAGGC [T32G G34A] stands 0.0029.
In the case of GAGACCGCAACTGAAAAGTTGTTATCAGAAAGGCATGGGTTGAATTTCTGCACGTAGAAGCAAAAGGC [T32G G34C], the fraction ligated worked out at 0.00552.
Consider GAGACCGCAACTGAAAAGTTGTTATCAGAAATAGATGGGTTAAATTTCTGCACGTAGAAGCAAAAGGC [G33A G42A], for which the fraction ligated came to 0.228.
Under GAGACCGCAACTGAAAAGTTGTTATCAGAAATAGATGGGTTCAATTTCTGCACGTAGAAGCAAAAGGC [G33A G42C] stands 0.0145.
In the case of GAGACCGCAACTGAAAAGTTGTTATCAGAAATAGATGGGTTTAATTTCTGCACGTAGAAGCAAAAGGC [G33A G42T], the fraction ligated turned out to be 0.102.
In the case of GAGACCGCAACTGAAAAGTTGTTATCAGAAATTGATGGGTTTAATTTCTGCACGTAGAAGCAAAAGGC [G33T G42T] it was 0.0256; in that of GAGACCGCAACTGAAAAGTTGTTATCAGAAATTGATGGGTTAAATTTCTGCACGTAGAAGCAAAAGGC [G33T G42A], 0.0913; in that of GAGACCGCAACTGAAAAGTTGTTATCAGAAATTGATGGGTTCAATTTCTGCACGTAGAAGCAAAAGGC [G33T G42C], 0.0103.
Consider GAGACCGCAACTGAAAAGTTGTTATCAGAAATAGATCGGTTGAATTTCTGCACGTAGAAGCAAAAGGC [G33A G37C], for which the fraction ligated was 0.00669.
Regarding GAGACCGCAACTGAAAAGTTGTTATCAGAAATAGATTGGTTGAATTTCTGCACGTAGAAGCAAAAGGC [G33A G37T], the fraction ligated is 0.0175.
For GAGACCGCAACTGAAAAGTTGTTATCAGAAATAGATAGGTTGAATTTCTGCACGTAGAAGCAAAAGGC [G33A G37A], the fraction ligated was 0.00769.

The record behind these values is the supplement of paper PMC6755084.
